Measurements as given in the nanobody polyreactivity screen of Harvey et al. (2022).

Test: yeast display, Sf9 membrane polyspecificity reagent, FACS + sequencing; frameworks hold sequencing errors
Method in brief: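 A nanobody's polyreactivity label depends on the gate it was sorted from. Yeast display cells were stained with 10% biotinylated, detergent-solubilized Sf9 membrane reagent for 1 hour at 4 °C, enriched on streptavidin microbeads and sorted by FACS. The low and high (top ~1%) gates were set on anti-HA fluorescence for expression and streptavidin fluorescence for reagent binding.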

Row | Sequence | polyreactivity (PSR sort gate)
1 | QVQLVESGGGLVQAGGSLRLSCAASGGTYRSNAMGWYRQAPGKERELVAASTNYADSVKGRFTISRDNAKNTVYLQMNSLKPEDTAVYYCAAGPTDSQTGMDYWGQGTQVTVSS | low polyreactivity
2 | QVQLVESGGGLVQAGGSLRLSCAASGHIFLGNVMGWYRQAPGKERELVAAISKRGGRTYYADSVKGRFTISRDNAKNTVYLQMNSLKPEDTAVYYCAAVIDSREEYWGQGTQVTVSS | high polyreactivity
3 | QVQLVESGGGLVQAGGSLRLSCAASGHSFFYYTMGWYRQAPGKERELVAGITIGGSTNYADSVKGRFTISRDNAKNTVYLQMNSLKPEETAVYYCKKRYVVSRKYDYWGQGTQVTVSS | low polyreactivity
4 | QVQLVESGGGLVQAGGSLRLSCAASGHTFRFYTMGWSRQAPGKEREFVAAIRRRTGSTYYADSVKGRFTISRDNAKNTVYLQMNSLKPEDTAVYYCNAVGDARYNYWGQGTQVTVSS | high polyreactivity
5 | QVQLVESGGGLVQAGGSLRLSCAASGIFAWNAMGWYRQAPGKERELVAAISWSGGSTYADSVKGRFTISRDNAKNTVYLQMNSLKPEDTAVYYCAKVSSLTSKSDYSGQGTQVTVSS | low polyreactivity
6 | QVQLVESGGGLVQAGGSLRLSCAASGIFFLYGMGWYIQAPGKQRELVAVISTRDTTDYADSVKGRFTISRDKSKNTVNIQMNSLKPEDTAVYFCAATARSRSYSWSKLNYWGQGTQVTLSS | low polyreactivity
7 | QVQLVESGGGLVQAGGSLRLSCAASGIFGGYAMGWYIQAPRKERELVAAITSGGSTYYADSVKGRFTISRDNAKNTVYLQMNSLKPEDTAVYYCAARPRGTYSRLGYWGQGTQVTVSS | high polyreactivity
8 | QVQLVESGGGLVQAGGSLRLSCAASGIFGSYAMGWYRQAPGKERELVAAISSGGSTYYADSVKGRFTISRDNAKNTVYLQMNSLKPEDTAVYYCAKRYGRAYRSYYWGQGTQVTVSS | high polyreactivity
9 | QVQLVESGGGLVQAGGSLRLSCAASGIFLKYAKGWYRPAPGKERELVPAIRKRGGSTYYADSVKGRFTISRDNAKNTVYLQMNSLKPEDTAVYYCATRYTYHPGSAGFDYWGQGTQVTVSS | high polyreactivity
10 | QVQLVESGGGLVQAGGSLRLSCAASGIFRRYAMGWYREAPGKERELVAAISSNGGSTYYADSVKGRFTISRDNAKNTVYLQMNSLKPEDTAVYYCNADVYVWNYKYYSWGQGTQVTVSS | high polyreactivity
11 | QVQLVESGGGLVQAGGSLRLSCAASGIFRYYAMGWYRQAPGKERELVASITGGGSTYYADSVKGRFTISRDNAKMTVYLQLNSLKPEDTAVYYCNTAGAYYRWTPYYYWGQGTQVTVSS | high polyreactivity
12 | QVQLVESGGGLVQAGGSLRLSCAASGIFRYYAMGWYRQAPGKERELVATITRSSGSTYYADSVKGRFTISRDNAKNTVYLQMNSLKPEDTAVYYCAARGPYFNRGTRYDYWGQGTQVTVSS | high polyreactivity
13 | QVQLVESGGGLVQAGGSLRLSCAASGIFVSYAMGWYRQAPGKDRAVVAAISSSGGSTYYADSVKGRFTISRDNAKNTVYLQMNSLKPEDTAVYYGAARLVKSQTTVQGYYWGQGTQVTVSS | high polyreactivity
14 | QVQLVESGGGLVQAGGSLRLSCAASGIICVKYTMGWYRQAPGKERELVAAISRSGGSTYYADSVKGRFTISRDNAKNTVYLQMNSLKPEDTAVYYCNAVSRKVYPGPMDYWGHGTQVTVSS | high polyreactivity
15 | QVQLVESGGGLVQAGGSLRLSCAASGIICYENTMGWYRQAPGKERELVAAINSGGSTYYADSVKGRFTISRDNAKNTVYLQMNSLKPEDTAVYYCAADDYSGLYYSSTYRYEYWGQGTQVTVSS | low polyreactivity
16 | QVQLVESGGGLVQAGGSLRLSCAASGIIFAANAMAWYRQAPGKERELVAAISKNGGITYYADSVKGRFTISRDNAKNTVYLQMNSLIPEDTAVYDCSARWRQTRRYYYWGQGTKVTVSS | high polyreactivity
17 | QVQLVESGGGLVQAGGSLRLSCAASGIIFADYAMGWSRQAPGKERELVAAISSGDSTYYADSVKGRFTMSLDNAKNTVYLQMNSLKPEDTAVYYSAARLFRNKYRIAKMNYWGQGTQVTVSS | high polyreactivity
18 | QVQLVESGGGLVQAGGSLRLSCAASGIIFAIYAMGWYRQAPGKESELVAAITWRGGSTYYADSVKGRFTISRDNAKNTVYLQRNSLKPEDTAVYYCDAVTKSLYGYDYWGQGSQVTVSS | low polyreactivity
19 | QVQLVESGGGLVQAGGSLRLSCAASGIIFAKYAMGWYRQAPGKERELVAGISRSGGRTYYADSVKGRFTISRDNAKNTVYLQMNSLKPEDTAVYYCAAVPHGTGGWWKYDYWGQGTQVTVSS | high polyreactivity
20 | QVQLVESGGGLVQAGGSLRLSCAASGIIFANNDMGWSRQAPGKERELVAVITFSDGSTYYADSVKGRFTISRDNAKNTVYLQMNSLKPEDTAVYYCATRIRSYYYWGQGTQVTVSS | high polyreactivity
21 | QVQLVESGGGLVQAGGSLRLSCAASGIIFAQYVMGWYRQAPGKERQLVAAIRTSGGRTYYADSVKGRFTISRDHAKITVYLQMISLKPVDTAVYYCAAYGKPTFRSVDYWGQGTQVTVSS | high polyreactivity
22 | QVQLVESGGGLVQAGGSLRLSCAASGIIFASNAMGWYRQAPGKERELVAAISRSGGRTYYADSVKGRFTISRDNAKNTVYLQMNSLKPEDTAVYYCNAVQFGATAYDYWGQGTQVTVSS | high polyreactivity

Row | Sequence | polyreactivity (PSR sort gate)
23 | QVQLVESGGGLVQAGGSLRLSCAASGIIFASYALGWYRQAPGKERELVAAISGGGSTYYADSVKGRFTISRDNAKNTVYLQMNSLKPEDTAVYYCNADVTLRLWAYYYYRYNYWGQGTQVTVSS | low polyreactivity
24 | QVQLVESGGGLVQAGGSLRLSCAASGIIFAWYVKGWYRQAPGKERELVAAITQSGGSTFYADSVKWRFTISRDNAKNTVYLQMNSLKPEDTAVYYCNREYWGRGYYRVRGEYDYWGQGTQVTVSS | low polyreactivity
25 | QVQLVESGGGLVQAGGSLRLSCAASGIIFAYYAMGWYRQAPGKERELVAAISWSGTSTYYADSVKGRFTISRDTATNTVYLQMNSLKPEDTAVYYCNAYGLYSDMDYWGQGTQVTVSS | high polyreactivity
26 | QVQLVESGGGLVQAGGSLRLSCAASGIIFAYYAMGWYRQAPGKERELVAAMNRSGGTTYYADSVKGRFTISRDNAKNTLYLQMNSLKPEDTAVYYCNALTTWRYRYDYWGQGTQVTVSS | high polyreactivity
27 | QVQLVESGGGLVQAGGSLRLSCAASGIIFAYYAMGWYRQAPGKERELVATITSGSNTNYADSVKGRFTISRDNAQNTVYLQMNSLKPEDTAVYYWGQGTQVTVSS | low polyreactivity
28 | QVQLVESGGGLVQAGGSLRLSCAASGIIFAYYAMGWYRQAPGKERELVGTNYADSVKGRFTISRDNAKNTVYLQMNSLKPEDTAVYYCNTEWTSLSKSSLGGRYDHWGQGTQVTVSS | low polyreactivity
29 | QVQLVESGGGLVQAGGSLRLSCAASGIIFDDYAMGWYRQAPGKERELVAAISRGGSTYYADSVKGRFTISRDNAKNTVYIQMNSLKPEDTAVYYCAAVVYTIYARYGYCGQGTQVTVSS | high polyreactivity
30 | QVQLVESGGGLVQAGGSLRLSCAASGIIFDDYAMGWYRQAPGKERELVAVISSSGGNTYYADSVKGRFTISRDNAKNSVYLQMNSLKPEDTAVYYCAATYYYKSIYWFEYLGQGTQVTVSS | low polyreactivity
31 | QVQLVESGGGLVQAGGSLRLSCAASGIIFDGNVMGWYRQAPGKEREFVASISISGGSTSYADSVKGRFTISRDNAKNTVYLQMNSLKPEDTAVYYCNTDVGYGRVWRWRYHGDYWGQGTQVTVSS | low polyreactivity
32 | QVQLVESGGGLVQAGGSLRLSCAASGIIFDGYTMGWYRQAPGTERELVAAITTSGTSTYYADSVKGRFTISRDNAKNTVYLQMNSLKPEDTAVYYCNAVRRGLPVVGAYDYWGQGTQVTVSS | high polyreactivity
33 | QVQLVESGGGLVQAGGSLRLSCAASGIIFDSYAMGWYRQAPGKERELVAAITSDSGRTYYADSVKGRFTISRDNAKKTVYLQMNSLKPEYTAVYYFAKRWDGPYDYWGQGTQVTVSS | low polyreactivity
34 | QVQLVESGGGLVQAGGSLRLSCAASGIIFDSYVMGWYRQAPGKERELVAAISFRGGSTYYADSVKGRFTISRDNAKNTVYLQMNSLKPEDTAVYYCAAEGRGYTEYYWGQGTQVTVSS | high polyreactivity
35 | QVQLVESGGGLVQAGGSLRLSCAASGIIFDVYAMGWYRPAPGKERELVAAISYGGGTTYYADSVKGRFTISRDNAKNTVYLQMNSLKPEDTAVYYCAADSYRSIGDDYWGQGTQVTVSS | high polyreactivity
36 | QVQLVESGGGLVQAGGSLRLSCAASGIIFDVYAMGWYRQAPGKEREFVAAITTGGSTNYADSVKGRFTISRDNAKNSVYLQMNSLTPEDTAVYYCNADWDVGYGYWGQGTQVTVSS | low polyreactivity
37 | QVQLVESGGGLVQAGGSLRLSCAASGIIFDVYAMGWYRQAPGKERELVAAISKRGGRTYYADSVKGRFTISRDNAKNTVYLQMNSLKPEDTAVYYCAADGQYKHFDYWGQGTQVTVSS | high polyreactivity
38 | QVQLVESGGGLVQAGGSLRLSCAASGIIFDYYAMGWYRQAPGKERELVAGISQRGGSTYYADSVKGRFTISRDNAKITVYLQMNSLKPEDTAVYYWAAYTRSCEGHRGGYWGQGTQVTVSS | high polyreactivity
39 | QVQLVESGGGLVQAGGSLRLSCAASGIIFDYYAMGWYRQAPGKVREFVATITSGGSTTYADSVKGRFTISRDNAKNTVYIEMNSLKPEDTAVYYCAARTYWFPDIYPGLGRDYWGQGTQVTVSS | low polyreactivity
40 | QVQLVESGGGLVQAGGSLRLSCAASGIIFEGNAMGWYRQAPGKERELVAAISTSTGRTYYADSVKGRFTISRDNAKNTVYLQMNSLKPEDTAVYYCAAYIRTTRFDYWGQGTQVTVSS | high polyreactivity
41 | QVQLVESGGGLVQAGGSLRLSCAASGIIFEGNVMGWYRHAPAKERELVAAITSDTSTNYADSVKGRFTISRDNAKNTVYLQMNSLKPVDTAVYYFNAVICTDYYYSGTAEFYYWGQGTQVTVSS | low polyreactivity
42 | QVQLVESGGGLVQAGGSLRLSCAASGIIFERYAMGWYRQAPGKERELVAAISKGGGSRTYYADSVQGRFTISRDTAKNTVYLQMNSLKPEDTAVYYCNADIWYGDMDYWGQGTQVTVSS | high polyreactivity
43 | QVQLVESGGGLVQAGGSLRLSCAASGIIFEYYTIGWYRQATGKERELVASITYDGDSTYYADSVKGRFTISRDNAKNTVYLQMNSLKPEDTAVYYCAADYYSVYSSFGHYYWGQGTQVTVSS | low polyreactivity
